Experimental findings from US20220073641A1, “FUSION PROTEIN OF ANTIBODY THAT RECOGNIZES CANCER CELLS AND MUTANT STREPTAVIDIN” (The University of Tokyo, priority 2018, published 2022) are described below.

The subject of data set [1] is MKN45 cells. Description: In vivo cytotoxicity test in MKN45 xenograft mouse models with 690 nm light. The following applies: 100 μg complex of CEA-V2122 and Compound 1 via caudal vein; 690 nm 230 J/cm^2 at 6 and 24 hours; pathology on 7th day; FIG. 11, 12. Set-up: species or system nude mice. The source says:
MKN45 cells were subcutaneously transplanted into nude mice to produce xenograft mouse models. That is, 4-week-old female nude mice were purchased, and the mice were then acclimated for 1 week. Thereafter, the MKN45 cells were transplanted in a cell count of 2×10^5 cells per mouse into the subcutis thereof. […] Using an LED light source emitting a light having a wavelength of 690 nm (USHIO OPTO SEMICONDUCTORS, INC., LD690D-66-60-550.), T-Cube LED Driver (THORLABS, NC0713145), and T-CUBE 15V POWER SUPPLY (THORLABS, TPS001), 6 hours after the administration, the mice were irradiated with the light having a wavelength of 690 nm, so that the irradiation energy became 230 J/cm^2. Twenty-four hours after administration of the complex, the mice were irradiated again with the light having a wavelength of 690 nm, so that the irradiation energy became 230 J/cm^2. Individual mice were euthanized on the 7th day after administration of the complex and were then excised, and the tumor portions were subjected to pathological analysis. The specific method is as follows. That is, the subcutaneous tumor of each mouse and the peripheral tissues thereof were excised as a mass, and the mass was then immersed in a 4% paraformaldehyde solution (Wako Pure Chemical Industries, Ltd., 163-20145) at mom temperature overnight, so that the tissues were fixed. […]

In data set [2] the test system is MKN45 cells. Description: Cytotoxicity test using CEA-V2122 and photoactivatable compound-labeled modified biotins with 690 nm light. As to conditions: complex with CEA-V2122 (molar ratio 1:2), 0.039-10 μg/mL, 690±10 nm 100 J/cm^2, 48 hours, Cell Counting Kit-8; FIG. 8. A general note: Formazan colour is commonly taken as a measure of viable cells.
Description: Specifically, MKN45 cells were seeded on a 96-well plate for cell culture, so that the cell count became 5×10^3 cells/well and the amount of the culture solution became 50 μL/well, and thereafter, the cells were cultured overnight. […] Regarding serial dilutions, 20 μg/mL was set to be an initial concentration, from 4-fold serial dilutions (5.0 μg/mL, 1.25 μg/mL, 0.312 μg/mL, and 0.078 μg/mL), 5 complex serial dilution solutions were prepared. Besides, a medium alone that contained no complex was used as a zero control.
Such complex serial dilution solutions were each added in an amount of 50 μL/well to the cells cultured overnight, so that the final concentrations became 10 μg/mL, 2.5 μg/mL, 0.625 μg/mL, 0.156 μg/mL, and 0.039 μg/mL One hour and two hours after addition of the complex, the cells were irradiated with a light, using LED emitting a light having a wavelength of 690±10 nm, so that the irradiation energy became 100 J/cm^2. […] Each condition was set to be n=3. The dosage and administration were determined in accordance with the instruction manuals included with the kit, and after addition of the reagent, the mixture was incubated for 1.5 hours at 37° C., in a CO2 incubator. Thereafter, the absorbance at 450 nm was measured, and the mean value was then calculated, followed by background collection. […]
For data set [3], the target named is T1, Recombinant Human CEACAM-5/CD66e Protein, CF (R & D SYSTEMS) (human, UniProt P06731 35-685).
T1 construct: Purchased protein, amine-coupled to a CM5 chip; also called antigen CEACAM5
T1 sequence (looked up): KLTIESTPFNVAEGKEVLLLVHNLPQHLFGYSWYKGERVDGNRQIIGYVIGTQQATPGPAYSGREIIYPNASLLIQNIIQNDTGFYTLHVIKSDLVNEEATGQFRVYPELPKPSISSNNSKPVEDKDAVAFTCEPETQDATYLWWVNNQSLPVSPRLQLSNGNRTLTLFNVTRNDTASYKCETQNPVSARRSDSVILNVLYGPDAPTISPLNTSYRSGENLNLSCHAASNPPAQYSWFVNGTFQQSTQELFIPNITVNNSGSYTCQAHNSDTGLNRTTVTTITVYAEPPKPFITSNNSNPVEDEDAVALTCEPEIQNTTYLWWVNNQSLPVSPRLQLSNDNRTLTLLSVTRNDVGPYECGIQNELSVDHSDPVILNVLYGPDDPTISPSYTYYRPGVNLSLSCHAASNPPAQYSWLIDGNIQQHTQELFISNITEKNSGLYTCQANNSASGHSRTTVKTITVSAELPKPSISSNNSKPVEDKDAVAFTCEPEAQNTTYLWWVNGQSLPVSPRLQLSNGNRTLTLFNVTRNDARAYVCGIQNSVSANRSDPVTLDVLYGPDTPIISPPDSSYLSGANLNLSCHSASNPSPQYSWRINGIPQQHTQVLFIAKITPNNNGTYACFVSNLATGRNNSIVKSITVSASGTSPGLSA
Briefly: SPR (Biacore T200), CEACAM5 immobilized on CM5, CEA-V2122 as analyte, single-cycle kinetics, bivalent analysis fit. For orientation: SPR reads the build-up and loss of mass on a sensor chip optically.

Data set [4] deals with T2, CEACAM5 (Homo sapiens, UniProt P06731).
T2 sequence (P06731 35-676): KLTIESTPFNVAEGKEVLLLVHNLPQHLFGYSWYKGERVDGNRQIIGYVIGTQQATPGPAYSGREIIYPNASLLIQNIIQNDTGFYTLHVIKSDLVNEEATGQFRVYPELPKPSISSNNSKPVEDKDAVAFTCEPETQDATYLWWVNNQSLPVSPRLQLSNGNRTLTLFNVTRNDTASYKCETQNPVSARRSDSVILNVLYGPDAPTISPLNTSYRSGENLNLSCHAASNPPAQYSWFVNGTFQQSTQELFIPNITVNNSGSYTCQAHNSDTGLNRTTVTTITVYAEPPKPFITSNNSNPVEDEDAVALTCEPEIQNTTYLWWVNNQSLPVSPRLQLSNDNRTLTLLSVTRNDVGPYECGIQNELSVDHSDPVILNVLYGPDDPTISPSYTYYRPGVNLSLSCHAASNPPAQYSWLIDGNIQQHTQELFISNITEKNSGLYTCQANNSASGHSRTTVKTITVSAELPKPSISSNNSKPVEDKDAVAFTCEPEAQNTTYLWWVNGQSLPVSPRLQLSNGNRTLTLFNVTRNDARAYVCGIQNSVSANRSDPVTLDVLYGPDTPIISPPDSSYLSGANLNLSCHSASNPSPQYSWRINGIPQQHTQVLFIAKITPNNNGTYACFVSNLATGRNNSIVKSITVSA
Description: Cell staining of CEACAM5-expressing cell line using FITC-labeled CEA-V2122. The data set is classed as cell-based. As for the experimental part:
In order to stain a CEACAM5 expression-positive cancer cell line, FTC labeling was carried out on the cell line, using 100 μg of a purified CEA-V2122 protein. Specifically, labeling was carried out using Fluorescein Labeling Kit—NH2 (DOJINDO LABORATORIES) in accordance with the dosage and administration described in the operating manual included with the kit, and the obtained product was defined to be CEA-V2122-FITC. Specific staining of the CEACAM5 expression-positive cancer cell line is as follows. That is, CEACAM5-positive human stomach cancer-derived MKN-45 cells and CEACAM5-negative human colon cancer-derived DLD1 cells were each seeded on a CELLSTAR, μClear, 96-well plate (Greiner) to a cell density of 2.0×10^4 cells/well, and thereafter, the cells were cultured overnight. Subsequently, a culture solution containing 20 nM CEA-V2122-FITC and 1 μM Hoechist was added to the 96-well plate to a concentration of 100 μL/well, and the obtained mixture was then reacted at 4° C. for 30 minutes. Thereafter, each image was taken using In Cell Analyzer 6000 (GE Healthcare Life Sciences).

Data set [5] is described as follows: SPR (Biacore T200) interaction between immobilized CEA-V2122 and a modified biotin. The format is binding. The method, then:
Furthermore, the interaction between CEA-V2122 and a modified biotin was also analyzed using Biacore T200. The modified biotin was specifically the title compound 14 described in Example 1 of International Publication WO2018/07239. In addition, the analysis method was specifically as follows. That is, an amine-coupling kit was used, a target value was set to be 5000 RU, and the purified CEA-V2122 was immobilized on Sensor Chip CM5.

Data set [6] deals with T2, CEACAM5. Description: SPR (Biacore T200) affinity of CEA-V2122 for immobilized antigen CEACAM5. Set-up: purchased R & D SYSTEMS. The data set is classed as binding.
[7] abbreviates: single-cycle kinetics, bivalent analysis mode, CEA-V2122 immobilized, modified biotin analyte.
[8] abbreviates: single-cycle kinetics, bivalent analysis mode, CEACAM5 immobilized, CEA-V2122 analyte.

Turning to `C[Si](C)(CCC[N+](CCCS(=O)(=O)[O-])(CCCS(=O)(=O)O)CCCS(=O)(=O)O)O[Si]1(O[Si](C)(C)CCC[N+](CCCS(=O)(=O)[O-])(CCCS(=O)(=O)O)CCCS(=O)(=O)O)N2/C3=N\C4=NC(=N\c5c6c(OCCCOC(=O)NCCCCCC(=O)NCCOCCOCCN(CC(=O)NCCCCNC(=O)CCCC[C@@H]7SC[C@@H]8NC(=N)N[C@@H]87)CC(=O)NCCCCNC(=O)CCCC[C@@H]7SC[C@@H]8NC(=N)N[C@@H]87)cccc6c(n51)/N=C1\N=C(NC2c2ccccc23)c2ccccc21)/c1ccccc14` (stereo partly drawn) [Compound 1], in the data set with MKN45 cells [1], the tumor necrosis entry is listed as “necrosis can be induced to the tumor of the xenograft mouse model”. Moreover, the cytotoxicity result in the data set with MKN45 cells [2] is recorded as “exhibits cytotoxicity in a concentration-dependent manner”.

B1: CEA-V2122 (scFv)
chain: QVKLEQSGAEVVKPGASVKLSCKASGFNIKDSYMHWLRQGPGQRLEWIGWIDPENGDTEYAPKFQGKATFTTDTSANTAYLGLSSLRPEDTAVYYCNEGTPTGPYYFDYWGQGTLVTVSSGGGGSGGGGSGGGGSENVLTQSPSSMSVSVGDRVNIACSASSSVPYMHWLQQKPGKSPKLLIYLTSNLASGVPSRFSGSGSGTDYSLTISSVQPEDAATYYCQQRSSYPLTFGGGTKLEIKGGGGSGGGGAEAGITGTWSDQLGDTFIVTAGADGALTGTYENAVGGAESRYVLTGRYDSAPATDGSGTALGWTVAWKNNSKNAHSATTWSGQYVGGADAKINTQWLLTSGTTNANAWKSTLVGHDTFTKVKPSAASHHHHHH
notes: also called CEA-Cupid; scFv-V2122
On to B1, for which, in data set [3], the Kd was 1.08 pM.

B2: CEA-V2122-FITC: purified CEA-V2122 protein labeled with Fluorescein Labeling Kit—NH2 (protein)
chain: B1 chain
As for B2, the “recognition of CEACAM5 on cells” value with CEACAM5 [4] (20 nM, 4° C., 30 minutes, CEACAM5-positive MKN-45 vs CEACAM5-negative DLD1 cells, FIG. 5) is recorded as “specifically recognizes CEACAM5 on the surface of the cell membrane”. Also, the “localisation of CEACAM5 after binding” value with CEACAM5 [4] (MKN45 cells, time series, FIG. 6) is on record as “the CEACAM5 stays on the surface of the cell membrane”.

B3: CEA-V2122: scFv-type anti-CEACAM5 antibody bound with mutant streptavidin V2122 via linker GGGGSGGGG; SEQ ID NO: 3 (protein)
chain: B1 chain
For B3, the “binding to a modified biotin” value in data set [5] (from the KD value in the sensorgram, FIG. 4) was “strongly binds to a modified biotin”. Moreover, the results for the ka1 (in data set [5] (setting [7]); with CEACAM5 [6] (setting [8])) were 3.792E+4 and 3.208E+5, respectively. The kd1 was found to be 4.424E−6 in data set [5] (setting [7]) and 3.461E−7 with CEACAM5 [6] (setting [8]). In addition, in the data set with CEACAM5 [6] (bivalent analysis mode), the “KD=kd1/ka1” value came to 1.078E−12. Besides, in the data set with CEACAM5 [6] (from the KD value in the sensorgram, FIG. 3), the “binding to CEACAM5” value is recorded as “strongly binds to CEACAM5”.
